Test results from the supplement of paper PMC10567573.

B1: KCNK9 (parent)
chain: DVPDLQSVCSCTCYRSQDYGGRSV
B2: UFD1L (parent)
chain: EAGGRFVAFSGEGQSLRKKGRKP

Variants of: B1
Assay: protein stability index of a GFP-peptide fusion (GPS, HEK-293T) (PSI 1-6); higher = more stable
Conditions: c terminus: a fixed tail appended
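Also: lentivirally expressed fusions sorted by FACS into six bins by GFP to DsRed ratio, PSI derived from sequencing read proportions per bin multiplied by bin number.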

Variant	protein stability index
DVPDCQSVCSCTCYRSQDYGGRSV [L5C]	1.83

Variants of: B2
Assay: as above
Conditions: c terminus: native

Variant	protein stability index
EAGGRFVAFSGEGNSLRKKGRKP [Q14N]	2.02
EAGGRFVAFSGEGVSLRKKGRKP [Q14V]	2.4
EAGGRFVFFSGEGQSLRKKGRKP [A8F]	2.8
EAGGRFVLFSGEGQSLRKKGRKP [A8L]	1.5
EAGGRFVHFSGEGQSLRKKGRKP [A8H]	1.34
EAGGRDVAFSGEGQSLRKKGRKP [F6D]	4.59
EAGGRSVAFSGEGQSLRKKGRKP [F6S]	2.41
EAGGRTVAFSGEGQSLRKKGRKP [F6T]	4.93
EAGGRYVAFSGEGQSLRKKGRKP [F6Y]	2.38
EAGGRFVAFSGEGQSLRKKVRKP [G20V]	2.53
EAGGRFVAFSGEGQSLRKKLRKP [G20L]	2.04
EAGGRFVAFSGEGQSLRKKKRKP [G20K]	4.63
EAGGRFVAFSGEGQSLRKKARKP [G20A]	3.91
EAGGRFVAFSGEGQSLRKKMRKP [G20M]	1.57
EAGGRFVAFSGEGQSLRKKWRKP [G20W]	1.81
LAGGRFVAFSGEGQSLRKKGRKP [E1L]	1.92
CAGGRFVAFSGEGQSLRKKGRKP [E1C]	2.5
DAGGRFVAFSGEGQSLRKKGRKP [E1D]	2.33
EAGGRFVAFSGEGQSLRKKGVKP [R21V]	4.06
EAGGRFVAFSGEGQSLRKKGNKP [R21N]	5.27
EAGGRFVAFSGEGQSLRKKGTKP [R21T]	4.35
EAGGRFVAFSGEGQSLRKKGPKP [R21P]	4.98
EAGGRFVAFSGEGQSLRKKGCKP [R21C]	3.45
EAGGRFVAFSGEGQSLRKKGKKP [R21K]	5

Variant	protein stability index
EAGGRFVAFSGEGQSLRKKGMKP [R21M]	4.38
EASGRFVAFSGEGQSLRKKGRKP [G3S]	1.82
EADGRFVAFSGEGQSLRKKGRKP [G3D]	1.88
EANGRFVAFSGEGQSLRKKGRKP [G3N]	1.63
EAMGRFVAFSGEGQSLRKKGRKP [G3M]	2.11
EACGRFVAFSGEGQSLRKKGRKP [G3C]	1.6
EATGRFVAFSGEGQSLRKKGRKP [G3T]	2.14
EAGGRFVAFSGEGQSLRKKGRDP [K22D]	2
EAGGRFVAFSGEGQSLRKKGRGP [K22G]	2.15
EAGGRFVAFSGEGQSLRKKGRFP [K22F]	2.77
EDGGRFVAFSGEGQSLRKKGRKP [A2D]	3.92
ETGGRFVAFSGEGQSLRKKGRKP [A2T]	1.64
EAGGRFVAFSGEVQSLRKKGRKP [G13V]	2.38
EAGGRFVAFSGETQSLRKKGRKP [G13T]	1.23
EAGGRFVAFSGEQQSLRKKGRKP [G13Q]	1.16
EAGGRFVAFSGELQSLRKKGRKP [G13L]	2.52
EAGGRFEAFSGEGQSLRKKGRKP [V7E]	2.91
EAGGRFSAFSGEGQSLRKKGRKP [V7S]	1.72
EAGGRFTAFSGEGQSLRKKGRKP [V7T]	1.18
EAGGRFHAFSGEGQSLRKKGRKP [V7H]	1.37
EAGGRFDAFSGEGQSLRKKGRKP [V7D]	3.75
EAGGRFIAFSGEGQSLRKKGRKP [V7I]	1.9
EAGGRFAAFSGEGQSLRKKGRKP [V7A]	2.69
EAGGRFCAFSGEGQSLRKKGRKP [V7C]	2.03

Variant	protein stability index
EAGGRFVAFSGEGQSLRKKGRKV [P23V]	4.09
EAGGRFVAFSGEGQSLRKKGRKK [P23K]	4.87
EAGGRFVAFSGEGQSLRKKGRKN [P23N]	2.62
EAGGRFVAFSGEGQSLRKKGRKW [P23W]	5.5
EAGTRFVAFSGEGQSLRKKGRKP [G4T]	1.5
EAGDRFVAFSGEGQSLRKKGRKP [G4D]	2.5
EAGKRFVAFSGEGQSLRKKGRKP [G4K]	2.58
EAGNRFVAFSGEGQSLRKKGRKP [G4N]	1
EAGLRFVAFSGEGQSLRKKGRKP [G4L]	1.25
EAGGRFVAFSGEGQSLRKCGRKP [K19C]	2.4
EAGGRFVAFSGEGQSLRKAGRKP [K19A]	3.83
EAGGRFVAFSGEGQSLRKTGRKP [K19T]	3.08
EAGGRFVAFSGEGQSLRKQGRKP [K19Q]	2.05
EAGGRFVAFSGEGQSLREKGRKP [K18E]	1.49
EAGGRFVAFSGEGQSLRRKGRKP [K18R]	1.48
EAGGRFVAFSGEGQSLRCKGRKP [K18C]	2.11
EAGGRFVAFSSEGQSLRKKGRKP [G11S]	1.54
EAGGRFVAFSPEGQSLRKKGRKP [G11P]	2.21
EAGGRFVAFSAEGQSLRKKGRKP [G11A]	1.26
EAGGRFVAFSLEGQSLRKKGRKP [G11L]	1.85
EAGGRFVAFSGEGQALRKKGRKP [S15A]	2.2
EAGGRFVAFSGEGQHLRKKGRKP [S15H]	2.1
EAGGRFVAFSGEGQVLRKKGRKP [S15V]	1.72
EAGGRFVAFSGEGQYLRKKGRKP [S15Y]	2.91

Variant	protein stability index
EAGGIFVAFSGEGQSLRKKGRKP [R5I]	1.48
EAGGDFVAFSGEGQSLRKKGRKP [R5D]	4.49
EAGGYFVAFSGEGQSLRKKGRKP [R5Y]	1.48
EAGGMFVAFSGEGQSLRKKGRKP [R5M]	1.85
EAGGAFVAFSGEGQSLRKKGRKP [R5A]	3.01
EAGGTFVAFSGEGQSLRKKGRKP [R5T]	3.2
EAGGKFVAFSGEGQSLRKKGRKP [R5K]	2.01
EAGGQFVAFSGEGQSLRKKGRKP [R5Q]	3.3
EAGGRFVAFSGEGQSERKKGRKP [L16E]	2.53
EAGGRFVAFSGEGQSNRKKGRKP [L16N]	2.61
EAGGRFVAFSGEGQSDRKKGRKP [L16D]	3.34
EAGGRFVAFSGEGQSQRKKGRKP [L16Q]	2.72
EAGGRFVAFSGEGQSLGKKGRKP [R17G]	2.95
EAGGRFVAFSGEGQSLKKKGRKP [R17K]	2.88
EAGGRFVAFSGEGQSLMKKGRKP [R17M]	2.25
EAGGRFVAFSGEGQSLLKKGRKP [R17L]	2.18
EAGGRFVAASGEGQSLRKKGRKP [F9A]	3.29
EAGGRFVAPSGEGQSLRKKGRKP [F9P]	3.64
EAGGRFVAVSGEGQSLRKKGRKP [F9V]	2.02
EAGGRFVAHSGEGQSLRKKGRKP [F9H]	1
EAGGRFVAFAGEGQSLRKKGRKP [S10A]	1.38
EAGGRFVAFNGEGQSLRKKGRKP [S10N]	2.98
EAGGRFVAFSGTGQSLRKKGRKP [E12T]	3.41
